According to US20180171001A1:

Legend:
Assay in all cases: cell-based or functional assay
[1] = target: Env of HIV-1 strain 3016.v5.c45 (HIV-1)
[2] = target: Env of HIV-1 strain 231965.c1 (HIV-1)
[3] = target: Env of HIV-1 strain PVO.4 (HIV-1)
[4] = target: Env of HIV-1 strain REJO4541.67 (HIV-1)
[5] = target: Env of HIV-1 strain Du172.17 (HIV-1)
[6] = target: Env of HIV-1 strain ZM53M.PB12 (HIV-1)
[7] = target: Env of HIV-1 strain X1254_c3 (HIV-1)
[8] = target: Env of HIV-1 strain R1166.c1 (HIV-1)
[9] = target: Env of HIV-1 strain 3365.v2.c20 (HIV-1)
[10] = target: Env of HIV-1 strain 3415.v1.c1 (HIV-1)
[11] = target: Env of HIV-1 strain ZM109F.PB4 (HIV-1)
[12] = target: Env of HIV-1 strain H086.8 (HIV-1)
[13] = target: Env of HIV-1 strain YU2.DG (HIV-1)
[14] = target: Env of HIV-1 strain 250-4 (HIV-1)
[15] = target: Env of HIV-1 strain 251-18 (HIV-1)
Env of MuLV = target: Env of MuLV

Binder	neutralization IC50 [1] [µg/mL]	neutralization IC50 [2] [µg/mL]	neutralization IC50 [3] [µg/mL]	neutralization IC50 [4] [µg/mL]	neutralization IC50 [5] [µg/mL]	neutralization IC50 [6] [µg/mL]	neutralization IC50 [7] [µg/mL]	neutralization IC50 [8] [µg/mL]	neutralization IC50 [9] [µg/mL]	neutralization IC50 [10] [µg/mL]	neutralization IC50 [11] [µg/mL]	neutralization IC50 [12] [µg/mL]	neutralization IC50 [13] [µg/mL]	neutralization IC50 [14] [µg/mL]	neutralization IC50 [15] [µg/mL]	neutralization IC50 (Env of MuLV) [µg/mL]
γ4κ3 (antibody, V domains shown) VH: QIHLVQSGTEVKKPGSSVTVSCKAYGVNTFGLYAVNWVRQAPGQSLEYIGQIWRWKSSASHHFRGRVIISAVDLTGSSPPISPLEIKNLTSDDTAVYFCTTTSTSDRWSGLHHDGVMAFSSWGQGTLISVSA VL: DIQMTQSPSTLSASIGDTVRISCRASQSITGNWLAWYHQRPGKAPRLLIYRGSRLLGGVPSRFSGSAAGTDFTLTIANLQAEDFGTFYCQQYDTYPGTFGQGTKVEVKR	> 15	> 15	> 15	> 15	> 15	> 15	18	> 15	> 15	> 15	> 15	> 15	> 15	> 15	> 15	–
γ20κ3 (antibody, V domains shown) VH: QIHLVQSGTEVKKPGSSVAVSCKAYGVNTFGLYAVNWVRQAPGQSLEYIGQIWRWKSSASHDFRGRVIISAVDLTGSSPPISSLEIKNLTSDDTAVYFCTATSTPDYWSGLHHDGVMAFSSWGQGTLISVSA VL: DIQMTQSPSTLSASIGDTVRISCRASQSITGNWLAWYHQRPGKAPRLLIYRGSRLLGGVPSRFSGSAAGTDFTLTIANLQAEDFGTFYCQQYDTYPGTFGQGTKVEVKR	> 15	> 15	> 15	> 15	> 15	> 15	14.7	> 15	> 15	> 15	> 15	> 15	> 15	> 15	> 15	> 21
γ52κ3 (antibody, V domains shown) VH: QIHLVQSGTEVKKPGSSVTVSCKAYGVNTFGLYAVNWVRQAPGQSLEYIGQIWRWKSSASHHFRGRVLISAVDLTGSSPPISSLEIKNLTSDDTAVYFCTTTSTYDRWSGLHHDGVMAFSSWGQGTLISVSA VL: DIQMTQSPSTLSASIGDTVRISCRASQSITGNWLAWYHQRPGKAPRLLIYRGSRLLGGVPSRFSGSAAGTDFTLTIANLQAEDFGTFYCQQYDTYPGTFGQGTKVEVKR	3.05	6.59	1.92	> 15	> 15	> 15	> 15	23.4	> 15	> 15	> 15	> 15	5.75	> 15	14.5	> 30
γ15κ18 (antibody, V domains shown) VH: QIHLVQSGTEVKKPGSSVTVSCKAYGVNTFGLYAVNWVRQAPGQSLEYIGQIWRWKSSASHHFRGRVIISAVDLTGSSPPISSLEIKNLTSDDTAVYFCTTASTYDKWSGLHHDGVMAFSSWGQGTLISVSA VL: DIQMTQSPSTLSASVGDTVRISCRASQSITGGWLAWYHQRPGKAPRLLIYRGSRLLGGVPSRFSGSAAGADFTLTIANLQAEDFGTFYCQQYDTYPGTFGQGTKVEVKR	0.664	1.49	1.59	> 15	> 15	> 15	2.85	1.99	> 15	> 15	> 15	> 15	1.17	> 15	> 15	–
γ8κ3 (antibody, V domains shown) VH: QIHLVQSGTGVKKPGSSVTVSCKAYGVNTFGLYAVNWVRQAPGQGLEYIGQIWRWKSSASHHFRGRVLISAVDLTGSSPPITSLEIKNVTSDDTAVYFCTTTSTYDKWSGLYHDGVMAFSSWGQGTLISVSA VL: DIQMTQSPSTLSASIGDTVRISCRASQSITGNWLAWYHQRPGKAPRLLIYRGSRLLGGVPSRFSGSAAGTDFTLTIANLQAEDFGTFYCQQYDTYPGTFGQGTKVEVKR	2.38	3.48	> 15	> 15	> 15	> 15	4.01	7.6	> 15	> 15	> 15	> 15	5.41	> 15	> 15	> 18
γ15κ3 (antibody, V domains shown) VH: QIHLVQSGTEVKKPGSSVTVSCKAYGVNTFGLYAVNWVRQAPGQSLEYIGQIWRWKSSASHHFRGRVIISAVDLTGSSPPISSLEIKNLTSDDTAVYFCTTASTYDKWSGLHHDGVMAFSSWGQGTLISVSA VL: DIQMTQSPSTLSASIGDTVRISCRASQSITGNWLAWYHQRPGKAPRLLIYRGSRLLGGVPSRFSGSAAGTDFTLTIANLQAEDFGTFYCQQYDTYPGTFGQGTKVEVKR	1.26	1.61	5.32	> 15	> 15	> 15	3.49	3.94	> 15	> 15	> 15	> 15	1.07	> 15	> 15	> 30
γ8κ11 (antibody, V domains shown) VH: QIHLVQSGTGVKKPGSSVTVSCKAYGVNTFGLYAVNWVRQAPGQGLEYIGQIWRWKSSASHHFRGRVLISAVDLTGSSPPITSLEIKNVTSDDTAVYFCTTTSTYDKWSGLYHDGVMAFSSWGQGTLISVSA VL: DIQMTQSPSTLSASVGGTVRISCRASQSITGGWLAWYHQRPGKAPRLLIYRGSRLLGGVPSRFSGSAAGTDFTLTIANLQAEDFGTFYCQQYDTYPGTFGQGTKVEVKR	2.46	2.49	8.16	> 15	> 15	> 15	4.14	3.88	> 15	> 15	> 15	> 15	9.35	> 15	> 15	–
γ22κ3 (antibody, V domains shown) VH: QIHLVQSGTEVKKPGSSVTVSCKAYGVNTFGLYAVNWVRQAPGQSLEYIGQIWRWKSSASHHFRGRVLISAVDLTGPSPPISSLEIKNLTSDDTAVYFCTTTSTYDKWSGLHHDGVMAFSSWGQGTLISVSA VL: DIQMTQSPSTLSASIGDTVRISCRASQSITGNWLAWYHQRPGKAPRLLIYRGSRLLGGVPSRFSGSAAGTDFTLTIANLQAEDFGTFYCQQYDTYPGTFGQGTKVEVKR	> 15	> 15	> 15	> 15	> 15	> 15	> 15	> 15	> 15	> 15	> 15	> 15	> 15	> 15	> 15	–
8ANC3040 (antibody, V domains shown) VH: QIHLVQSGTEVKKPGSSVTVSCKAYGVNTFGLYAVNWVRQAPGQSLEYIGQIWRWKSSASHHFRGRVLISAVDLTGSSPPISSLEIKNLTSDDTAVYFCTTTSTYDQWSGLHHDGVMAFSSWGQGTLISVSA VL: DIQMTQSPSTLSASIGDTVRISCRASQSITGNWVAWYQQRPGKAPRLLIYRGAALLGGVPSRFSGSAAGTDFTLTIGNLQAEDFGTFYCQQYDTYPGTFGQGTKVEVKR	0.427	1.17	0.284	0.198	–	14.9	2.91	2.37	> 25	3.06	–	–	0.617	–	0.571	> 30
γ46κ5 (antibody, V domains shown) VH: QIHLVQSGTEVKKPGSSVTVSCKAYGVNTFGLYAVNWVRQAPGQGLEYIGQIWRWKSSASHHFRGRVLISAVDLTGSSPPISSLEIKNVTSDDTAVYFCTTTSTYDKWSGLHHDGVVAFSSWGQGTLISVSA VL: DIQMTQSPSTLSASTGDTVRISCRASQSITGNWVAWYQQRPGKAPRLLIYRGAALLGGVPSRFRGSAAGTDFTLTIGNLQAEDFGTFYCQQYDTYPGTFGQGTKVEVKR	0.111	0.525	0.129	0.196	> 15	12.4	1.79	0.922	> 15	> 15	> 15	1.75	0.553	> 15	0.609	–
